One experiment has as its target T1, CD64 (UniProt P12314 16-288, limits assumed).
T1 construct: Captured on the chip by its His-tag; also called Fcγ receptor CD64
The experiment is described as follows: SPR (Biacore), His-tagged FcγR captured on anti-His chip, antibody as analyte, 25 °C.

The next experiment has as its target T2, CD32a (H) (UniProt P12318 36-218).
T2 construct: Captured by its His-tag
T2 sequence (looked up): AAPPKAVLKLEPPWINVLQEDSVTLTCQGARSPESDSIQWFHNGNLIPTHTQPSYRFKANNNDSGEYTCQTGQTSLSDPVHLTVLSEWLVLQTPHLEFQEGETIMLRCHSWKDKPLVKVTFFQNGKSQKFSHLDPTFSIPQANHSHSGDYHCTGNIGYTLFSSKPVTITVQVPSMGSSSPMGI
The description is as above.

The target in another experiment is T3, CD32b (UniProt P31994 43-217).
T3 construct: Captured by its His-tag
T3 sequence (looked up): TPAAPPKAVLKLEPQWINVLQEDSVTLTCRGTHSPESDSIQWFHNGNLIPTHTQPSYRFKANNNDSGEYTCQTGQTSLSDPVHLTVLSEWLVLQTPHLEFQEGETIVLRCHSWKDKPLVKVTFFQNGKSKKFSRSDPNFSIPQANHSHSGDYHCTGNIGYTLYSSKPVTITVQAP
The experiment is described as above.

Experiment [1] addresses T4, CD16a (V) (UniProt P08637 17-208).
T4 construct: Captured by its His-tag
The experiment is described as above.
Method: (§1) Affinity to FcγRs was measured by Biacore. A CM5 chip was prepared using standard amine immobilisation Biacore procedures. Upon insertion of a CM5 chip the system was primed and then normalised with BIA-normalizing solution (Biacore Preventative Maintenance Kit 2). The chip was added to the system with PBS-T running buffer; prior to immobilisation the chip surface was primed with three injections of 50 mM NaOH. FcγRs were immobilised on the chip surface using a His-tag capture system. The anti-His tag chip was prepared according to the Biacore kit instructions, with ˜12000 RU's of the antibody deposited on all 4 flow cells. To remove non-covalently bound material from all the chip flow cells, three 30 second 10 mM glycine pH 1.5 washes were performed. The Fcγ receptors were diluted in PBS-T to a range of 0.5-2 μg/mL, with 2.5-5.0 μL injected onto the chip generating capture levels between 60 and 200 RU's. Antibodies were diluted into PBS-T prior to analysis. Single cycle kinetics were used to estimate the steady state affinity. For each single cycle analysis cycle a titration of 5 antibody concentrations were injected over the FcγR ligand and then the dissociation of the complex was measured. The surface was regenerated using the recommended solution, 10 mM glycine pH 1.5 for the anti-His capture surface. A double referencing method was employed in which data from the ligand bound capture surface (fc 2 and 4) were subtracted from the references surfaces where no ligand was captured (fc 1 and 3 respectively). Blank injections of buffer were run for every antibody titration cycle and then subtracted from analyte injection cycles, to correct for small changes in the ligand capture surface. All analysis was performed at 25° C. and the sample rack was incubated at 10° C. during experimental runs. Each experiment was run at least three times.
(§2) The mean and standard deviation affinity calculated from two or more independent experiments is shown.

In experiment [2] the target is T5, human TNFα (human, UniProt P01375 77-233).
T5 construct: also called recombinant TNFα
The experiment is described as follows: SPR (Biacore), antibody captured on Protein A, TNFα as analyte, single cycle kinetics, 25 °C.
Method: Affinity to TNFα was measured by Biacore. A CM5 chip was prepared using standard amine immobilisation Biacore procedures. Upon insertion of a CM5 chip the system was primed and then normalised with BIA-normalising solution (Biacore Preventative Maintenance Kit 2). The chip was added to the system with PBS-T running buffer; prior to immobilisation the chip surface was primed with three injections of 50 mM NaOH. Protein A was immobilised on the chip surface. For this, the protein was diluted to 5 μg/mL into 10 mM acetate buffer at pH 4.5 and injected so to generate a bound response of ˜1000 RU's in all 4 flow cells. To remove non-covalently bound material from all the chip flow cells, three 15 second 50 mM NaOH washes were performed. On the Protein A chip, antibody was captured in flow cells 2 and 4, with flow cells 1 and 3 used for reference subtraction. The trial antibodies were diluted in PBS-T to 10 nM and 2.5-7.5 uL injected to obtain 120 RU of captured antibody. The analyte TNFα was prepared at 500 μg/mL in water as directed by the supplier and further diluted into the running buffer Phosphate Buffered Saline Tween-20 (PBS-T). Single cycle kinetics was used to estimate the steady state affinity. For each single cycle analysis cycle a titration of 5 analyte concentrations were injected over the ligand and then the dissociation of the complex was measured. The surface was regenerated using glycine pH 1.7. A double referencing method was employed in which data from the ligand bound capture surface (fc 2 and 4) were subtracted from the references surfaces where no ligand was captured (fc 1 and 3 respectively). Blank injections of buffer were run every 3-4 cycles and then subtracted from analyte injection cycles, to correct for small changes in the ligand capture surface. Repeat injections of analyte at the start and end of each analytical run were used to check for sample degradation, or changes in the instrument performance. All analysis was performed at 25° C. and the sample rack was incubated at 10° C. during experimental runs. Each experiment was run at least three times. A 1-to-1 binding model was used to fit the resulting kinetic data.

Experiment [3] deals with T6, monomeric His-tagged human FcRn (human, UniProt P55899 24-297; P61769 21-119, limits assumed).
T6 construct: also called hFcRn
The experiment is described as follows: SPR (Biacore 3000) at pH 6.0, antibody amine-coupled, monomeric His-tagged hFcRn as analyte, 25 °C; pH 6.0. For orientation: Surface plasmon resonance follows binding to a sensor surface in real time, without labels.
Method: (§3) SPR was performed using a Biacore 3000 instrument with CM5 sensor chips coupled with anti-TNFα IgG1 antibodies (˜500 resonance units (RU)) using amine-coupling chemistry as described by the manufacturer. The coupling was performed by injecting 2.0 ug/mL of each protein in 10 mM sodium acetate, pH 4.5, using the amine-coupling kit (GE Healthcare). […] All SPR experiments were conducted at 25° C. with a flow rate of 40 ul/min. Binding data were zero-adjusted, and reference cell value subtracted. The Langmuir 1:1 ligand binding model provided by the BIAevaluation software (version 4.1) was used to determine the binding kinetics.

The target of experiment [4] is T5, human TNFα. As to the kind of experiment: cell-based or functional assay.
Experiment [5] addresses T6, monomeric His-tagged human FcRn. The experiment is described as follows: SPR at pH 6.0, KD against that of IFX; pH 6.0; fold change from IFX.
Method: as §3
For experiment [6] the target is unchanged. The experiment is described as follows: SPR at pH 6.0, KD against that of Ab-wt; pH 6.0; fold change from Ab-wt.
Method: as §3
In the next experiment the target is T7, CD32a (R) (UniProt P12318 36-218).
T7 construct: Captured by its His-tag
T7 sequence (looked up): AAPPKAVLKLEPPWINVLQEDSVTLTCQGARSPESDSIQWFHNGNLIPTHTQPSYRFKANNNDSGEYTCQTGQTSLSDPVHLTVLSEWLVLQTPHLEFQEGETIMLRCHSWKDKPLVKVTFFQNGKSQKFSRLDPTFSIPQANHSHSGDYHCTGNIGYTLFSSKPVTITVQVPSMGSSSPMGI
As to the kind of experiment: SPR (Biacore), His-tagged FcγR captured on anti-His chip, antibody as analyte, 25 °C.

The target of a further experiment is T8, CD16a (F) (UniProt P08637 17-208).
T8 construct: Captured by its His-tag
The experiment is described as above.

Another experiment concerns the target T9, CD16b (NA2) (UniProt O75015 17-200, limits assumed).
T9 construct: Captured by its His-tag
The experiment is described as above.

The next experiment has as its target human C1q (human, UniProt P02745 23-245; P02746 28-253; P02747 29-245). As to the kind of experiment: ELISA: antibody titrated onto plate-coated human TNFα (1 µg/mL), then human C1q (0.5 µg/mL), detected with rabbit anti-human C1q and HRP anti-rabbit IgG, absorbance 620 nm. A general note: ELISA stands for enzyme-linked immunosorbent assay.
Experiment [7] deals with T4, CD16a (V). As to the kind of experiment: SPR (Biacore), His-tagged FcγR captured; the sentence names no reference (Ab-wt by Table 5).
Method: Affinity to FcγRs was measured by Biacore. A CM5 chip was prepared using standard amine immobilisation Biacore procedures. Upon insertion of a CM5 chip the system was primed and then normalised with BIA-normalizing solution (Biacore Preventative Maintenance Kit 2). The chip was added to the system with PBS-T running buffer; prior to immobilisation the chip surface was primed with three injections of 50 mM NaOH. FcγRs were immobilised on the chip surface using a His-tag capture system. The anti-His tag chip was prepared according to the Biacore kit instructions, with ˜12000 RU's of the antibody deposited on all 4 flow cells. To remove non-covalently bound material from all the chip flow cells, three 30 second 10 mM glycine pH 1.5 washes were performed. The Fcγ receptors were diluted in PBS-T to a range of 0.5-2 μg/mL, with 2.5-5.0 μL injected onto the chip generating capture levels between 60 and 200 RU's. Antibodies were diluted into PBS-T prior to analysis. Single cycle kinetics were used to estimate the steady state affinity. For each single cycle analysis cycle a titration of 5 antibody concentrations were injected over the FcγR ligand and then the dissociation of the complex was measured. The surface was regenerated using the recommended solution, 10 mM glycine pH 1.5 for the anti-His capture surface. […]

Data on four molecules can be found in patent US20200255511A1 (TILLOTTS PHARMA, published 2020).

A word on the Kd: it is the concentration at which binding is half-saturated. In general, koff refers to a measure of how fast the partners let go of each other. The low end stands for slow dissociation, the high end for fast dissociation. As usually defined, the kon is a measure of how fast the partners come together. Lower therefore signals slow association. As usually defined, the EC50 (read off the curve) is the concentration at which the effect is half-maximal.

T1 sequence (P12314 16-288 limits assumed): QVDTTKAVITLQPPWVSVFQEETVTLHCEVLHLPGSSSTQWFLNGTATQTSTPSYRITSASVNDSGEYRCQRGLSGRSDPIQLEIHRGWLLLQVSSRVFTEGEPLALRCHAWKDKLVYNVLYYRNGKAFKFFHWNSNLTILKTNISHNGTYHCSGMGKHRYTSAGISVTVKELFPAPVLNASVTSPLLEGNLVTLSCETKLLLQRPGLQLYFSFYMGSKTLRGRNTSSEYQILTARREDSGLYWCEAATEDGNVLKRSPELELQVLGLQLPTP
T4 sequence (P08637 17-208 F176V limits assumed): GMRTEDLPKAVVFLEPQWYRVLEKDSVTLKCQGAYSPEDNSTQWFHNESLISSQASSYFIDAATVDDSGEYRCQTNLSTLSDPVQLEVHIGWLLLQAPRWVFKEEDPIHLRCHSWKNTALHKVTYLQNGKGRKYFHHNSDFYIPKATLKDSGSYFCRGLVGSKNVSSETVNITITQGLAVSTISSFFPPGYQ
T6 sequence (P55899 24-297 limits assumed, chain 1 of 2): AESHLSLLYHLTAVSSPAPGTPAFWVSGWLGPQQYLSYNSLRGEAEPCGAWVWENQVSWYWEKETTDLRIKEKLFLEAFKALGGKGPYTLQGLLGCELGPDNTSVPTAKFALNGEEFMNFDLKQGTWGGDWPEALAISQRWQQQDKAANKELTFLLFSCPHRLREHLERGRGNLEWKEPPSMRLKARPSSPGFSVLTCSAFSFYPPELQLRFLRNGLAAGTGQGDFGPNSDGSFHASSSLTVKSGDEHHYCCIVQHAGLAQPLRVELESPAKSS
T6 sequence (P61769 21-119 limits assumed, chain 2 of 2): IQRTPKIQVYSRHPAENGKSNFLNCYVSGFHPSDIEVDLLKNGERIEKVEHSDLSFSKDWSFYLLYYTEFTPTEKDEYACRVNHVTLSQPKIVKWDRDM
T5 sequence (P01375 77-233 limits assumed): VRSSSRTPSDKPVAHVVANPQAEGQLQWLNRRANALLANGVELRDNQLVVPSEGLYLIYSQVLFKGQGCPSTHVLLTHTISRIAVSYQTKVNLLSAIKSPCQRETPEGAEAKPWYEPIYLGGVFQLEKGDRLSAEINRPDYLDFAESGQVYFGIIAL
Chain of human C1q (P02745 23-245 limits assumed, chain 1 of 3): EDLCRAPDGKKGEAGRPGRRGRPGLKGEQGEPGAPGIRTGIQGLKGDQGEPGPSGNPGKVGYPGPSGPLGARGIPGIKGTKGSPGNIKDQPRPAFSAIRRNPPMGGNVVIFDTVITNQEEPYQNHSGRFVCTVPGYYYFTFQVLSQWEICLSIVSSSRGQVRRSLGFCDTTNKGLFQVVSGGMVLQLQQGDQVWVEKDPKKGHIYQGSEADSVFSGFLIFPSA
Chain of human C1q (P02746 28-253 limits assumed, chain 2 of 3): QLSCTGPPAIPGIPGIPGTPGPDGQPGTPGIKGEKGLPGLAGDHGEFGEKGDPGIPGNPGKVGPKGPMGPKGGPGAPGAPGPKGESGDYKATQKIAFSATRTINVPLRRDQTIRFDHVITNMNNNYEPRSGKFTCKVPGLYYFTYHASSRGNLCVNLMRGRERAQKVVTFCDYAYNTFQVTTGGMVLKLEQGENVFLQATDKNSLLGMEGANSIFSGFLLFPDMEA
Chain of human C1q (P02747 29-245 limits assumed, chain 3 of 3): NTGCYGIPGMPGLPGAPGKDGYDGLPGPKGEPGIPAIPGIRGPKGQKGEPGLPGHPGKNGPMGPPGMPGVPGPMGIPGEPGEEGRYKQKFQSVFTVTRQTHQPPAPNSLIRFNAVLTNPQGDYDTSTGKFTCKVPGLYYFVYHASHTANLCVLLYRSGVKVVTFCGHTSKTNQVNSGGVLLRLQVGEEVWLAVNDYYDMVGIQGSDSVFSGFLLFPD
T8 sequence (P08637 17-208 limits assumed): as the sequence (P08637 17-208 F176V limits assumed) above, with V160F counted along it
T9 sequence (O75015 17-200 N65S limits assumed): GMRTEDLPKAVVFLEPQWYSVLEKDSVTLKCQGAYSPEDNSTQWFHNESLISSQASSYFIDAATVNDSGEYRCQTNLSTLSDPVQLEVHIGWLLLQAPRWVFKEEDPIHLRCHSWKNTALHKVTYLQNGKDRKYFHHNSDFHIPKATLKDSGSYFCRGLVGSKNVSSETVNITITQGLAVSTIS
Method for CD16a (F): as §1, §2
Method for CD16b (NA2): as §1, §2
Method for CD32a (H): as §1
Method for CD32a (R): as §1
Method for CD32b: as §1
Method for CD64: as §1
Method for human C1q: ELISA was performed using 96-well MaxiSorp plates where the wells were coated with human TNFα diluted to 1 μg/mL in PBS. After incubation O/N at 4° C., the plates were blocked with PBS containing 4% skimmed milk for 1 h and washed four times with PBS containing 0.05% Tween-20 (PBS-T). Then, titrated amounts of the anti-TNFα IgG antibodies were diluted in PBS-T, added and incubated for 1h at RT. After washing using PBS-T, human C1q (0.5 μg/mL) was diluted in 0.1 M Veronal buffer (0.25 mM CaCl₂ and 0.8 mM MgCl₂ pH 7.2), added to the wells and incubated for 1 h. Subsequently, the wells were washed as above before rabbit anti-human C1q diluted 1:5000 in PBS-T was added to the wells and incubated for 1 h. After washing, an HRP-conjugated anti-rabbit IgG from donkey diluted 1:5000 in PBS-T was added. Subsequently, the wells were washed and 100 μL 3,3′,5,5′-Tetramethylbenzidine substrate was added to each well. The absorbance was measured at 620 nm using a Sunrise spectrophotometer.
The anti-TNFα antibody variants were captured on human TNFα before human C1q was added.

B1: Ab-wt (antibody, human IgG1, kappa)
heavy: not shown
light: DIQMTQSPSSLSASVGDRVTIKCQASQSIFSGLAWYQQKPGKAPKLLIYGASKLASGVPSRFSGSGSGTEFTLTISGLQPADFATYYCQSYYYSSSSSDGSYAFGGGTKLTVLGRTVAAPSVFIFPPSDEQLKSGTASVVCLLNNFYPREAKVQWKVDNALQSGNSQESVTEQDSKDSTYSLSSTLTLSKADYEKHKVYACEVTHQGLSSPVTKSFNRGEC
notes: Human IgG1 anti-TNFα antibody with wild-type Fc; also called parent antibody; wild-type antibody
Consider B1, for which the Kd with CD64 amounted to 2.92 nM; in the experiment with CD32a (H) it was 670 nM; with CD32b, 3140 nM; in the experiment with CD16a (V) [1], 184 nM; with human TNFα [2], 0.00413 nM; in experiment [3] it was 1000 nM. In the experiment with human TNFα [2], this molecule returned a koff of 3.45e-05 s⁻¹. In the experiment with human TNFα [2], this molecule yielded a kon of 8.37e+06 M⁻¹ s⁻¹.

B2: Ab-AA (antibody, human IgG1, kappa)
heavy: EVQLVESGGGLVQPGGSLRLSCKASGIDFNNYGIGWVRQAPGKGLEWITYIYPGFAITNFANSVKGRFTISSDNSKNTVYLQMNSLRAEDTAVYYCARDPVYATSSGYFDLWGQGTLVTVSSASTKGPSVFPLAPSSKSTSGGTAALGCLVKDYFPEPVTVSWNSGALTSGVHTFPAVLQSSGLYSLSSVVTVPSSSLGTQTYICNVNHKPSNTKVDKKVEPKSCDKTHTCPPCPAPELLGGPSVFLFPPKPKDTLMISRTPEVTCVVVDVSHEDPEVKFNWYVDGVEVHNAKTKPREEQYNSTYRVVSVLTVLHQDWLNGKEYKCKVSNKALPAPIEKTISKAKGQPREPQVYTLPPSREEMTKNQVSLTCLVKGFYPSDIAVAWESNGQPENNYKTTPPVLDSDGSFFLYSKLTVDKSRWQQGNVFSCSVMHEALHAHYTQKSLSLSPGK
light: DIQMTQSPSSLSASVGDRVTIKCQASQSIFSGLAWYQQKPGKAPKLLIYGASKLASGVPSRFSGSGSGTEFTLTISGLQPADFATYYCQSYYYSSSSSDGSYAFGGGTKLTVLGRTVAAPSVFIFPPSDEQLKSGTASVVCLLNNFYPREAKVQWKVDNALQSGNSQESVTEQDSKDSTYSLSSTLTLSKADYEKHKVYACEVTHQGLSSPVTKSFNRGEC
notes: Human IgG1; also called E380A/N434A variant
With B2, the “IC50 (read off the curve)” value with human TNFα [4] is around 0.008 µg/mL. Also, the “Fold change from IFX” value in [5] is 3.6 fold. The “Fold change from wt” value in [6] turned out to be 8.4 fold. The Kd with CD64 stood at 3.59 nM; in the experiment with CD32a (H) it was 1410 nM; with CD32a (R), 2050 nM; in the experiment with CD32b it was 2170 nM; with CD16a (V) [1] it was 707 nM; with CD16a (F), 1760 nM. Further, the dissociation constant (Kd) in the experiment with CD16b (NA2) turned out to be 2240 nM; in the experiment with human TNFα [2], 0.00247 nM; in experiment [3], 119 nM. Further, in the experiment with human TNFα [2], the koff worked out at 2.06e-05 s⁻¹. In addition, the kon with human TNFα [2] is 8.54e+06 M⁻¹ s⁻¹. The “EC50 (read off the curve)” value with human C1q was around 0.6 µg/mL.

B3: Ab-AA-2FF (antibody, human IgG1, kappa)
heavy: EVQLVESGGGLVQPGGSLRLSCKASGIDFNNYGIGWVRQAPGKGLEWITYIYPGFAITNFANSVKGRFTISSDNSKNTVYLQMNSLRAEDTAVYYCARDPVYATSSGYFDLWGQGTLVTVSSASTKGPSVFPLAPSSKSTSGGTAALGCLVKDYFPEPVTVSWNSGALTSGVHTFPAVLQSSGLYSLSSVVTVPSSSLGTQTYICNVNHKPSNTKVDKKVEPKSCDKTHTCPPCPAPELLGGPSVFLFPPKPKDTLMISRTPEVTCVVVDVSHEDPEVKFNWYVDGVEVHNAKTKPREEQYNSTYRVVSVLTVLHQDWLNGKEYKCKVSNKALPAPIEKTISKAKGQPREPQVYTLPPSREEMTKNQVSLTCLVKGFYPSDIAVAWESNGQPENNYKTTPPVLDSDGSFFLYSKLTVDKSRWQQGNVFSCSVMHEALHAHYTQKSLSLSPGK
light: DIQMTQSPSSLSASVGDRVTIKCQASQSIFSGLAWYQQKPGKAPKLLIYGASKLASGVPSRFSGSGSGTEFTLTISGLQPADFATYYCQSYYYSSSSSDGSYAFGGGTKLTVLGRTVAAPSVFIFPPSDEQLKSGTASVVCLLNNFYPREAKVQWKVDNALQSGNSQESVTEQDSKDSTYSLSSTLTLSKADYEKHKVYACEVTHQGLSSPVTKSFNRGEC
modifications: N-glycans at N297 (EU) with greatly reduced fucose (<10% fucosylated); produced in the presence of 2-deoxy-2-fluoro-fucose (2FF)
notes: human IgG1; also called non-fucosylated variant of Ab-AA
B3: the “IC50 (read off the curve)” value with human TNFα [4] was around 0.008 µg/mL. The “Fold change from IFX” value in experiment [5] was determined as 4.1 fold. In [6], the “Fold change from wt” value amounted to 9.7 fold. Besides, the Kd with CD64 amounted to 3.17 nM; with CD32a (H) it was 1170 nM; in the experiment with CD32a (R) it was 1560 nM; in the experiment with CD32b, 1370 nM; with CD16a (V) [1] it was 39.4 nM; in the experiment with CD16a (F), 170 nM. In addition, the Kd in the experiment with CD16b (NA2) turned out to be 470 nM; with human TNFα [2], 0.00773 nM; in experiment [3], 103 nM. In the experiment with CD16a (V) [7], the “fold increase in affinity” value turned out to be 4.7 fold. Also, the koff with human TNFα [2] turned out to be 5.84e-05 s⁻¹. The kon with human TNFα [2] was found to be 7.55e+06 M⁻¹ s⁻¹. Moreover, the “EC50 (read off the curve)” value in the experiment with human C1q is around 0.7 µg/mL.

B4: infliximab (antibody)
chain 1: not shown
chain 2: DILLTQSPAILSVSPGERVSFSCRASQFVGSSIHWYQQRTNGSPRLLIKYASESMSGIPSRFSGSGSGTDFTLSINTVESEDIADYYCQQSHSWPFTFGSGTNLEVKRTVAAPSVFIFPPSDEQLKSGTASVVCLLNNFYPREAKVQWKVDNALQSGNSQESVTEQDSKDSTYSLSSTLTLSKADYEKHKVYACEVTHQGLSSPVTKSFNRGEC
In the case of B4, the “EC50 (read off the curve)” value with human C1q was around 0.6 µg/mL.
